Measurements: IntAct's records for PubMed 9422760

B1: Tyrosine-protein phosphatase non-receptor type 18 (Homo sapiens), Q99952 (parent)
chain: MSRSLDSARSFLERLEARGGREGAVLAGEFSDIQACSAAWKADGVCSTVAGSRPENVRKNRYKDVLPYDQTRVILSLLQEEGHSDYINGNFIRGVDGSLAYIATQGPLPHTLLDFWRLVWEFGVKVILMACREIENGRKRCERYWAQEQEPLQTGLFCITLIKEKWLNEDIMLRTLKVTFQKESRSVYQLQYMSWPDRGVPSSPDHMLAMVEEARRLQGSGPEPLCVHCSAGCGRTGVLCTVDYVRQLLLTQMIPPDFSLFDVVLKMRKQRPAAVQTEEQYRFLYHTVAQMFCSTLQNASPHYQNIKENCAPLYDDALFLRTPQALLAIPRPPGGVLRSISVPGSPGHAMADTYAVVQKRGAPAGAGSGTQTGTGTGTGARSAEEAPLYSKVTPRAQRPGAHAEDARGTLPGRVPADQSPAGSGAYEDVAGGAQTGGLGFNLRIGRPKGPRDPPAEWTRV
B2: Proline-serine-threonine phosphatase-interacting protein 1 (Homo sapiens), O43586 (parent)
chain: MMPQLQFKDAFWCRDFTAHTGYEVLLQRLLDGRKMCKDMEELLRQRAQAEERYGKELVQIARKAGGQTEINSLRASFDSLKQQMENVGSSHIQLALTLREELRSLEEFRERQKEQRKKYEAVMDRVQKSKLSLYKKAMESKKTYEQKCRDADDAEQAFERISANGHQKQVEKSQNKARQCKDSATEAERVYRQSIAQLEKVRAEWEQEHRTTCEAFQLQEFDRLTILRNALWVHSNQLSMQCVKDDELYEEVRLTLEGCSIDADIDSFIQAKSTGTEPPAPVPYQNYYDREVTPLTSSPGIQPSCGMIKRFSGLLHGSPKTTSLAASAASTETLTPTPERNEGVYTAIAVQEIQGNPASPAQEYRALYDYTAQNPDELDLSAGDILEVILEGEDGWWTVERNGQRGFVPGSYLEKL
partner: B1 chain

Variants of: B1
Conditions: with ppip1_human PSTPIP1, O43586

Row | effect of a mutation on the interaction | Variant
1 | increasing interaction | C229S

Variants of: B1
Conditions: with ppip1_human PSTPIP1, O43586
Remark: another data set of the same source

Row | effect of a mutation on the interaction | Variant
2 | disrupting interaction | P447A

Variants of: B2
Conditions: with ptn18_human PTPN18, Q99952

Row | effect of a mutation on the interaction | Variant
3 | disrupting interaction | W232A
